# T1: TNFR1 (Homo sapiens, UniProt P19438)
# T1 chain: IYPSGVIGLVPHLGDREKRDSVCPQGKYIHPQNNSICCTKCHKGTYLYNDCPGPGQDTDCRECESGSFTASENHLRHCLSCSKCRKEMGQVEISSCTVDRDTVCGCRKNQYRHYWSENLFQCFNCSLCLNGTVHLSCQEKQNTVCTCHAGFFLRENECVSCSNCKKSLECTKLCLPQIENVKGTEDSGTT
# Biological target: T1, TNFR1
# Test: yeast display SC50
row,Binder,apparent Kd (screen)
1,K15F (designed binder) SMEEEVEKAAKEYEFKKKEAIEKHLEKLKAKDKEAAERFLKELEEAAKEYAKDEAKTMSEEEAKRRAKKYKEKVLLSELSEEEQKEIKEAEEKLVRTILKYVEEAAK,0.446 nM
2,E5R (designed binder) SMEERVEKAAKEYEKKKKEAIEKHLEKLKAKDKEAAERFLKELEEAAKEYAKDEAKTMSEEEAKRRAKKYKEKVLLSELSEEEQKEIKEAEEKLVRTILKYVEEAAK,0.446 nM
3,D53G (designed binder) SMEEEVEKAAKEYEKKKKEAIEKHLEKLKAKDKEAAERFLKELEEAAKEYAKGEAKTMSEEEAKRRAKKYKEKVLLSELSEEEQKEIKEAEEKLVRTILKYVEEAAK,12.5 nM
4,T57I (designed binder) SMEEEVEKAAKEYEKKKKEAIEKHLEKLKAKDKEAAERFLKELEEAAKEYAKDEAKIMSEEEAKRRAKKYKEKVLLSELSEEEQKEIKEAEEKLVRTILKYVEEAAK,0.49 nM
5,K27I (designed binder) SMEEEVEKAAKEYEKKKKEAIEKHLEILKAKDKEAAERFLKELEEAAKEYAKDEAKTMSEEEAKRRAKKYKEKVLLSELSEEEQKEIKEAEEKLVRTILKYVEEAAK,1.05 nM
6,K31S (designed binder) SMEEEVEKAAKEYEKKKKEAIEKHLEKLKASDKEAAERFLKELEEAAKEYAKDEAKTMSEEEAKRRAKKYKEKVLLSELSEEEQKEIKEAEEKLVRTILKYVEEAAK,0.956 nM
7,K15M (designed binder) SMEEEVEKAAKEYEMKKKEAIEKHLEKLKAKDKEAAERFLKELEEAAKEYAKDEAKTMSEEEAKRRAKKYKEKVLLSELSEEEQKEIKEAEEKLVRTILKYVEEAAK,0.539 nM
8,Y50H (designed binder) SMEEEVEKAAKEYEKKKKEAIEKHLEKLKAKDKEAAERFLKELEEAAKEHAKDEAKTMSEEEAKRRAKKYKEKVLLSELSEEEQKEIKEAEEKLVRTILKYVEEAAK,13.8 nM
9,K69V (designed binder) SMEEEVEKAAKEYEKKKKEAIEKHLEKLKAKDKEAAERFLKELEEAAKEYAKDEAKTMSEEEAKRRAKVYKEKVLLSELSEEEQKEIKEAEEKLVRTILKYVEEAAK,0.49 nM
10,K64D (designed binder) SMEEEVEKAAKEYEKKKKEAIEKHLEKLKAKDKEAAERFLKELEEAAKEYAKDEAKTMSEEEADRRAKKYKEKVLLSELSEEEQKEIKEAEEKLVRTILKYVEEAAK,1.05 nM
11,E14T (designed binder) SMEEEVEKAAKEYTKKKKEAIEKHLEKLKAKDKEAAERFLKELEEAAKEYAKDEAKTMSEEEAKRRAKKYKEKVLLSELSEEEQKEIKEAEEKLVRTILKYVEEAAK,11.4 nM
12,E42K (designed binder) SMEEEVEKAAKEYEKKKKEAIEKHLEKLKAKDKEAAERFLKKLEEAAKEYAKDEAKTMSEEEAKRRAKKYKEKVLLSELSEEEQKEIKEAEEKLVRTILKYVEEAAK,0.368 nM
13,K23F (designed binder) SMEEEVEKAAKEYEKKKKEAIEFHLEKLKAKDKEAAERFLKELEEAAKEYAKDEAKTMSEEEAKRRAKKYKEKVLLSELSEEEQKEIKEAEEKLVRTILKYVEEAAK,0.79 nM
14,K17E (designed binder) SMEEEVEKAAKEYEKKEKEAIEKHLEKLKAKDKEAAERFLKELEEAAKEYAKDEAKTMSEEEAKRRAKKYKEKVLLSELSEEEQKEIKEAEEKLVRTILKYVEEAAK,1.05 nM
15,L40P (designed binder) SMEEEVEKAAKEYEKKKKEAIEKHLEKLKAKDKEAAERFPKELEEAAKEYAKDEAKTMSEEEAKRRAKKYKEKVLLSELSEEEQKEIKEAEEKLVRTILKYVEEAAK,10.4 nM
16,E7H (designed binder) SMEEEVHKAAKEYEKKKKEAIEKHLEKLKAKDKEAAERFLKELEEAAKEYAKDEAKTMSEEEAKRRAKKYKEKVLLSELSEEEQKEIKEAEEKLVRTILKYVEEAAK,4.39 nM
17,E62D (designed binder) SMEEEVEKAAKEYEKKKKEAIEKHLEKLKAKDKEAAERFLKELEEAAKEYAKDEAKTMSEEDAKRRAKKYKEKVLLSELSEEEQKEIKEAEEKLVRTILKYVEEAAK,0.446 nM
18,S59E (designed binder) SMEEEVEKAAKEYEKKKKEAIEKHLEKLKAKDKEAAERFLKELEEAAKEYAKDEAKTMEEEEAKRRAKKYKEKVLLSELSEEEQKEIKEAEEKLVRTILKYVEEAAK,0.956 nM
19,A55T (designed binder) SMEEEVEKAAKEYEKKKKEAIEKHLEKLKAKDKEAAERFLKELEEAAKEYAKDETKTMSEEEAKRRAKKYKEKVLLSELSEEEQKEIKEAEEKLVRTILKYVEEAAK,10.4 nM
20,K29V (designed binder) SMEEEVEKAAKEYEKKKKEAIEKHLEKLVAKDKEAAERFLKELEEAAKEYAKDEAKTMSEEEAKRRAKKYKEKVLLSELSEEEQKEIKEAEEKLVRTILKYVEEAAK,0.869 nM
21,K68V (designed binder) SMEEEVEKAAKEYEKKKKEAIEKHLEKLKAKDKEAAERFLKELEEAAKEYAKDEAKTMSEEEAKRRAVKYKEKVLLSELSEEEQKEIKEAEEKLVRTILKYVEEAAK,1.27 nM
22,K64F (designed binder) SMEEEVEKAAKEYEKKKKEAIEKHLEKLKAKDKEAAERFLKELEEAAKEYAKDEAKTMSEEEAFRRAKKYKEKVLLSELSEEEQKEIKEAEEKLVRTILKYVEEAAK,0.49 nM
23,A46F (designed binder) SMEEEVEKAAKEYEKKKKEAIEKHLEKLKAKDKEAAERFLKELEEFAKEYAKDEAKTMSEEEAKRRAKKYKEKVLLSELSEEEQKEIKEAEEKLVRTILKYVEEAAK,16.7 nM
24,K56D (designed binder) SMEEEVEKAAKEYEKKKKEAIEKHLEKLKAKDKEAAERFLKELEEAAKEYAKDEADTMSEEEAKRRAKKYKEKVLLSELSEEEQKEIKEAEEKLVRTILKYVEEAAK,7.78 nM

# Second part, the binder after the results:
row,apparent Kd (screen),Binder
1,0.718 nM,E81T (designed binder) SMEEEVEKAAKEYEKKKKEAIEKHLEKLKAKDKEAAERFLKELEEAAKEYAKDEAKTMSEEEAKRRAKKYKEKVLLSELSTEEQKEIKEAEEKLVRTILKYVEEAAK
2,0.593 nM,E81K (designed binder) SMEEEVEKAAKEYEKKKKEAIEKHLEKLKAKDKEAAERFLKELEEAAKEYAKDEAKTMSEEEAKRRAKKYKEKVLLSELSKEEQKEIKEAEEKLVRTILKYVEEAAK
3,0.653 nM,E86N (designed binder) SMEEEVEKAAKEYEKKKKEAIEKHLEKLKAKDKEAAERFLKELEEAAKEYAKDEAKTMSEEEAKRRAKKYKEKVLLSELSEEEQKNIKEAEEKLVRTILKYVEEAAK
4,1.54 nM,A106H (designed binder) SMEEEVEKAAKEYEKKKKEAIEKHLEKLKAKDKEAAERFLKELEEAAKEYAKDEAKTMSEEEAKRRAKKYKEKVLLSELSEEEQKEIKEAEEKLVRTILKYVEEAHK
5,8.56 nM,Y70W (designed binder) SMEEEVEKAAKEYEKKKKEAIEKHLEKLKAKDKEAAERFLKELEEAAKEYAKDEAKTMSEEEAKRRAKKWKEKVLLSELSEEEQKEIKEAEEKLVRTILKYVEEAAK
6,11.4 nM,L99D (designed binder) SMEEEVEKAAKEYEKKKKEAIEKHLEKLKAKDKEAAERFLKELEEAAKEYAKDEAKTMSEEEAKRRAKKYKEKVLLSELSEEEQKEIKEAEEKLVRTIDKYVEEAAK
7,0.446 nM,E104H (designed binder) SMEEEVEKAAKEYEKKKKEAIEKHLEKLKAKDKEAAERFLKELEEAAKEYAKDEAKTMSEEEAKRRAKKYKEKVLLSELSEEEQKEIKEAEEKLVRTILKYVEHAAK
8,0.446 nM,K88M (designed binder) SMEEEVEKAAKEYEKKKKEAIEKHLEKLKAKDKEAAERFLKELEEAAKEYAKDEAKTMSEEEAKRRAKKYKEKVLLSELSEEEQKEIMEAEEKLVRTILKYVEEAAK
9,7.07 nM,Q84K (designed binder) SMEEEVEKAAKEYEKKKKEAIEKHLEKLKAKDKEAAERFLKELEEAAKEYAKDEAKTMSEEEAKRRAKKYKEKVLLSELSEEEKKEIKEAEEKLVRTILKYVEEAAK
10,0.49 nM,E81N (designed binder) SMEEEVEKAAKEYEKKKKEAIEKHLEKLKAKDKEAAERFLKELEEAAKEYAKDEAKTMSEEEAKRRAKKYKEKVLLSELSNEEQKEIKEAEEKLVRTILKYVEEAAK
11,2.05 nM,K107V (designed binder) SMEEEVEKAAKEYEKKKKEAIEKHLEKLKAKDKEAAERFLKELEEAAKEYAKDEAKTMSEEEAKRRAKKYKEKVLLSELSEEEQKEIKEAEEKLVRTILKYVEEAAV
